Molecular target: SARS-CoV-2 RBD (SARS-CoV-2, reference (Wuhan-Hu-1) …, UniProt P0DTC2)
Test: ELISA

B1: DH1047 IgG (antibody, V domains shown)
VH: QVQLVQSGAEVKKPGASVQVSCQASANTFTNHYIHWVRQAPGQGLEWMGIIYPTGGNTIYAQGFQGRVTMTRDTSLNTIYLELSSLRSEDTAVYYCARDVRVDDSWSGYDLLSGGTYFDYWGQGTLVTVSS
VL: not shown
binding result: binds

Reference: publication PMC8095197 (bioRxiv, 2021)
